In article PMC6284025:

Experiments:
[1] = target: FcγRII (CD32) on human CD4+ T cells (human (endogenous in CD4+ T cells of blood donors)) (UniProt P12318)
[2] = target: FcγRII (CD32) on human CD4+ T cells (human (endogenous in CD4+ T cells of blood donors)) (UniProt P12318); experiment: flow cytometry on cells; activated purified CD4+ T cells incubated with aIgG (100 μg/ml) for 2 h at 37°C, washed three times, stained with biotinylated anti-human IgG Fc and streptavidin PerCP; percent of aIgG+CD4+ T cells

UniProt P12318, sequence (P12318 34-317): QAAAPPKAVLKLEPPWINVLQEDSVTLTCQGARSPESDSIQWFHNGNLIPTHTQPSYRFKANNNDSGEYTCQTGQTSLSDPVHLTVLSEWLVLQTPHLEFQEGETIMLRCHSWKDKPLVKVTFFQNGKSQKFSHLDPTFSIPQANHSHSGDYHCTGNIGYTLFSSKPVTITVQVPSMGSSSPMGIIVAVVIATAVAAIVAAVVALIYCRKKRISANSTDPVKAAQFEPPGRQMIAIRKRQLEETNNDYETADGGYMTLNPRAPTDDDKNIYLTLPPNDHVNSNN

IFN-γ in the supernatant (ELISA) after cIgG, then suboptimal PHA for 5 d [1]: 4950 pg/mL
IL-5 in the supernatant (ELISA) after cIgG, then suboptimal PHA for 5 d [1]: 77.9 pg/mL
IL-10 in the supernatant (ELISA) after cIgG, then suboptimal PHA for 5 d [1]: 143 pg/mL
TNF-α in the supernatant (ELISA) after cIgG, then suboptimal PHA for 5 d [1]: 59.1 pg/mL
percent of aIgG+CD4+ T cells [2]: 14.1%
Substance: Human IgG (heat-aggregated IgG, used as a model of immune complexes; or immobilised on plastic) (ligand)
